{"source": "patent US20060270832A1", "target": "human noradrenaline transporter (hNET) (human), P23975", "sequence (P23975 whole entry)": "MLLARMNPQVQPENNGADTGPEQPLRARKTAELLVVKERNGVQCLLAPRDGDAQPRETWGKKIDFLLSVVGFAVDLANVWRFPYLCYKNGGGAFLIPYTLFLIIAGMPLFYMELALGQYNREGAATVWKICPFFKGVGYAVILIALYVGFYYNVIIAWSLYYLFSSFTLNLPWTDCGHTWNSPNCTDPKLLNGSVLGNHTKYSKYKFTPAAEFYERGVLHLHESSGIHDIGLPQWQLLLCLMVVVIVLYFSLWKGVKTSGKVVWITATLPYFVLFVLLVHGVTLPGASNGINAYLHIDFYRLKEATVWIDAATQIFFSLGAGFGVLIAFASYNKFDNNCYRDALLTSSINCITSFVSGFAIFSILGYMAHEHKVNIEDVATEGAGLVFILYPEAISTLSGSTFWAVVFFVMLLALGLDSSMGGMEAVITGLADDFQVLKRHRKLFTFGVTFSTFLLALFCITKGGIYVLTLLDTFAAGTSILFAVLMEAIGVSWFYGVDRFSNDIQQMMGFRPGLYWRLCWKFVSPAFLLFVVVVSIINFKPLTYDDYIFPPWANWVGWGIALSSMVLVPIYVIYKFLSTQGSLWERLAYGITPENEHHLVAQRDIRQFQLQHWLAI", "test": "cell-based or functional assay"}
{"binder": "WKDLCCGYKLCHPC (modifications not checked)", "note": "[SEQ ID NO. 85]", "values": [{"measurement": "Av IC50, inhibition of NA uptake via hNET (log M (unit not given))", "value": -7.05}]}
{"binder": "GYKLGCCGYKLCC (modifications not checked)", "note": "[SEQ ID NO. 99]", "values": [{"measurement": "Av IC50, inhibition of NA uptake via hNET (log M (unit not given))", "value": -6.99}]}
